Data from patent US20260097113A1 (Pfizer, published 2026).

Columns and labels:
[1] = molecular target: RSV A + RSV B bivalent composition (RSV subtype A; RSV subtype B); assay: AM14 Fab titration by SEC; Target cycle; 3 M 40°C
[2] = molecular target: RSV A + RSV B bivalent composition (RSV subtype A; RSV subtype B); assay: AM14 Fab titration by SEC; High-Slow 2 cycle; 3 M 2-8°C
[3] = molecular target: RSV A + RSV B bivalent composition (RSV subtype A; RSV subtype B); assay: AM14 Fab titration by SEC; High-Slow 1 cycle; 1 M 2-8°C (second value)
[4] = molecular target: RSV A + RSV B bivalent composition (RSV subtype A; RSV subtype B); assay: AM14 Fab titration by SEC; composition of Table 14; pre-lyo composition
[5] = molecular target: RSV A + RSV B bivalent composition (RSV subtype A; RSV subtype B); assay: AM14 Fab titration by SEC; composition of Table 14; Annealing Temp Aggressive cycle
[6] = molecular target: RSV A + RSV B bivalent composition (RSV subtype A; RSV subtype B); assay: AM14 Fab titration by SEC; composition of Table 14; Cumulative Aggressive (High-Slow) cycle
[7] = molecular target: T1, RSV F protein of subtype A comprising a polypeptide of SEQ ID NO: 1 and a polypeptide of SEQ ID NO: 2 (RSV subtype A, UniProt P11209 137-513; P03420 26-109); assay: AM14 ELISA; F11 (pH 7, 50 mM NaCl, 9.0% sucrose); T0
T1 construct: Stabilized prefusion F trimer made of three F2-F1 heterodimers; Produced recombinantly in CHO cells; also called RSV A; RSVA
T1 chain 1: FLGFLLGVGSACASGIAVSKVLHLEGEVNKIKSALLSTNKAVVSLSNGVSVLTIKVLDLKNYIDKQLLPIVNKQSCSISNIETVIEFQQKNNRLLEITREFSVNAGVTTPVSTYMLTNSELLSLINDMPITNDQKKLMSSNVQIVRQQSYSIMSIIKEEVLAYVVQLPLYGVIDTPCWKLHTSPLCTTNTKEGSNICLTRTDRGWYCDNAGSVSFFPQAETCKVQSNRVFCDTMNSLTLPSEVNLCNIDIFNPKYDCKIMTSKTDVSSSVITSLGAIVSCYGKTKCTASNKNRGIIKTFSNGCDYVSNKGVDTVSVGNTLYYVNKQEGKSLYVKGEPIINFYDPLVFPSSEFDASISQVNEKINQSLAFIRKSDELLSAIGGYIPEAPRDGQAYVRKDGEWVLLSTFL
T1 chain 2: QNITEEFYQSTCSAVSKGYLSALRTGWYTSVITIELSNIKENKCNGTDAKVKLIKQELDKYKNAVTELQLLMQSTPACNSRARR

[8] = molecular target: T1, RSV F protein of subtype A comprising a …; assay: AM14 ELISA; F2 (pH 8, 0 mM NaCl, 0% sucrose); 2 wk 25°C
[9] = molecular target: T1, RSV F protein of subtype A comprising a …; assay: AM14 ELISA; F3 (pH 8, 0 mM NaCl, 9% sucrose); 2 wk 25°C
[10] = molecular target: T1, RSV F protein of subtype A comprising a …; assay: AM14 ELISA; F9 (pH 8, 50 mM NaCl, 4.5% sucrose); 2 wk 5°C
[11] = molecular target: T1, RSV F protein of subtype A comprising a …; assay: AM14 ELISA; F11 (pH 7, 50 mM NaCl, 9.0% sucrose); 1 wk 5°C
[12] = molecular target: T1, RSV F protein of subtype A comprising a …; assay: AM14 ELISA; F14 (pH 7, 50 mM NaCl, 4.5% sucrose); 2 wk 5°C
[13] = molecular target: T1, RSV F protein of subtype A comprising a …; assay: AM14 ELISA; F5 (pH 6, 100 mM NaCl, 9.0% sucrose); 2 wk 5°C
[14] = molecular target: T1, RSV F protein of subtype A comprising a …; assay: AM14 ELISA; F10 (pH 7, 50 mM NaCl, 4.5% sucrose); 2 wk 25°C
[15] = molecular target: T1, RSV F protein of subtype A comprising a …; assay: AM14 ELISA; F11 (pH 7, 50 mM NaCl, 9.0% sucrose); 1 wk 25°C
[16] = molecular target: T1, RSV F protein of subtype A comprising a …; assay: AM14 ELISA; F5 (pH 6, 100 mM NaCl, 9.0% sucrose); 1 wk 25°C
[17] = molecular target: T1, RSV F protein of subtype A comprising a …; assay: AM14 ELISA; F18 (pH 7, 50 mM NaCl, 3% sucrose + 3% mannitol); 1 wk 5°C

Q: With AM14 Fab as the molecule, how does the Prefusion Content (%) [1] read?
A: Its Prefusion Content (%) is 72%.

Q: What about the Prefusion Content (%) [2] of the same molecule?
A: Its Prefusion Content (%) is 62%.

Q: What about the Prefusion Content (%) [3] of the same molecule?
A: The Prefusion Content (%) was 44%.

Q: And the Prefusion Content (%) [4]?
A: The Prefusion Content (%) was 77%.

Q: And the Prefusion Content (%) [5]?
A: Its Prefusion Content (%) is 70%.

Q: What about the Prefusion Content (%) [6] of the same molecule?
A: The Prefusion Content (%) was 64%.

B1: AM14 (trimeric prefusion specific antibody of the AM14 ELISA) (antibody, V domains shown)
VH: EVQLVESGGGVVQPGRSLRLSCAASGFSFSHYAMHWVRQAPGKGLEWVAVISYDGENTYYADSVKGRFSISRDNSKNTVSLQMNSLRPEDTALYYCARDRIVDDYYYYGMDVWGQGATVTVSS
VL: DIQMTQSPSSLSASVGDRVTITCQASQDIKKYLNWYHQKPGKVPELLMHDASNLETGVPSRFSGRGSGTDFTLTISSLQPEDIGTYYCQQYDNLPPLTFGGGTKVEIKR
notes: Antibody as used in the AM14 ELISA, detected with an HRP-labeled secondary antibody
Q: Which results are given for B1?
A: AM14 prefusion content (%), relative to standard [7]: 102%; AM14 prefusion content (%), relative to standard [8]: 56%; AM14 prefusion content (%), relative to standard [9]: 72%; AM14 prefusion content (%), relative to standard [10]: 92%; AM14 prefusion content (%), relative to standard [11]: 101%; AM14 prefusion content (%), relative to standard [12]: 78%; AM14 prefusion content (%), relative to standard [13]: 76%; AM14 prefusion content (%), relative to standard [14]: 81%; AM14 prefusion content (%), relative to standard [15]: 91%; AM14 prefusion content (%), relative to standard [16]: 97%; AM14 prefusion content (%), relative to standard [17]: 56%
